Results: article doi:10.1101/546648 (bioRxiv, 2019)

Molecular target: the molecule itself
Assay: crystal structure

B1: Homo sapiens REXO2 (enzyme)
chain: MAAGESMAQRMVWVDLEMTGLDIEKDQIIEMACLITDSDLNILAEGPNLIIKQPDELLDSMSDWCKEHHGKSGLTKAVKESTITLQQAEYEFLSFVRQQTPPGLCPLAGNSVHEDKKFLDKYMPQFMKHLHYRIIDVSTVKELCRRWYPEEYEFAPKKAASHRALDDISESIKELQFYRNNIFKKKIDEKKRKIIENGENEKTVS
Question: Does B1 bind?
Answer: binds
